Reference: patent US20130336885A1 (Genentech, published 2013)

T1: gD epitope-tagged LgR5 324-907 (amino acids 324-907 of SEQ ID NO: 67) on transiently transfected 293 cells (human, UniProt O75473 324-907)
T1 sequence: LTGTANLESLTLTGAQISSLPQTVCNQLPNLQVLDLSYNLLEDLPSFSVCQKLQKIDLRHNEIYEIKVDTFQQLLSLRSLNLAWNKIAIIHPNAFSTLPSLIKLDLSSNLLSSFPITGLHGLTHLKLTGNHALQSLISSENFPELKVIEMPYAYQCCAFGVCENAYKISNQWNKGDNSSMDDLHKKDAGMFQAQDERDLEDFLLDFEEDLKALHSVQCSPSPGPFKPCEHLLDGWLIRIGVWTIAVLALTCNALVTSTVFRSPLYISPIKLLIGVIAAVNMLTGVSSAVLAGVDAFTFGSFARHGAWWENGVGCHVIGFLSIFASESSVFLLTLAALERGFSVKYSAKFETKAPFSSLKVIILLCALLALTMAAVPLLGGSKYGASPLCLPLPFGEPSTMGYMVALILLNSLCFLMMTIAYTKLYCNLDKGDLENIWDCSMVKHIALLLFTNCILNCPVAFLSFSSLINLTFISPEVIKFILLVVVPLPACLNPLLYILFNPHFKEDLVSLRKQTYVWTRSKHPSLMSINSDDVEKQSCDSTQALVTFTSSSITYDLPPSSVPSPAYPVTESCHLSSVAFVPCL

T2: gD epitope-tagged LgR5 22-123 (amino acids 22-123 of SEQ ID NO: 67) with a C-terminal GPI anchor on … (human, UniProt O75473 22-123, C-terminal GPI anchor)
T2 sequence: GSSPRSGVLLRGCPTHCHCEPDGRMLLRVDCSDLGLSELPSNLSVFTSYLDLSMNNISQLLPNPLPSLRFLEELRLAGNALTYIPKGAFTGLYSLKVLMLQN

T3: gD epitope-tagged LgR5 424-907 (amino acids 424-907 of SEQ ID NO: 67) on transiently transfected 293 cells (human, UniProt O75473 424-907)
T3 sequence: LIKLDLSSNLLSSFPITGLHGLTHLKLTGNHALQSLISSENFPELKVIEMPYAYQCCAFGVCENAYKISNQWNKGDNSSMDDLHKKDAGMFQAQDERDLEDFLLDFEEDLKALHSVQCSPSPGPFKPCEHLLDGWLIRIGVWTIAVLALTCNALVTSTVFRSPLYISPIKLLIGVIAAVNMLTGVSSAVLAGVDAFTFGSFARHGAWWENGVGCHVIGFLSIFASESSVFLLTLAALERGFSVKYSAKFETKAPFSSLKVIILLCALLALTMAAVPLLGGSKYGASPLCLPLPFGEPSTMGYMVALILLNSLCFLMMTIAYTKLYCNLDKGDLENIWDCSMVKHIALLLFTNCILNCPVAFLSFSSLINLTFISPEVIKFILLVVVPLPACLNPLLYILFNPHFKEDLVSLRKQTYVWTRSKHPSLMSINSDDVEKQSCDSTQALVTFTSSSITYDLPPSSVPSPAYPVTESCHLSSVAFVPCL

T4: human LgR5 ECD (amino acids 22-557 fused to His-Fc expressed in a baculovirus system, or amino acids 22-558 … (human, UniProt O75473 22-557))
T4 construct: not shown: C-terminal His-tagged Fc
T4 sequence: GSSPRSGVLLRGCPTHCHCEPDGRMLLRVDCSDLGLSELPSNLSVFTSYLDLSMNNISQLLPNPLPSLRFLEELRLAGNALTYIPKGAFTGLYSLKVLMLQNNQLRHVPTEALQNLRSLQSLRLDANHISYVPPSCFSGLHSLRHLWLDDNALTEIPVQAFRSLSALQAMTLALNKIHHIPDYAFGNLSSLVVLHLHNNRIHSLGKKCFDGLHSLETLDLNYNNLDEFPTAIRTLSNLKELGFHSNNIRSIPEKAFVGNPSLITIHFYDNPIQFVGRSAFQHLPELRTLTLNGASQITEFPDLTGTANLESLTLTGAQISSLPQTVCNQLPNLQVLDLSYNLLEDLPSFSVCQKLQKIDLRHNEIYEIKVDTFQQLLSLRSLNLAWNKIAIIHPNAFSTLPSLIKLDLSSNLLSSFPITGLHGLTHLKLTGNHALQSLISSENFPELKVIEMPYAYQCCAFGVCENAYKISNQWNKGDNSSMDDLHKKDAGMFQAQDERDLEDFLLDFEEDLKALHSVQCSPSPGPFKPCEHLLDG


How the values were obtained:
[1] = target: T1, gD epitope-tagged LgR5 324-907 (amino …); experiment: FACS on transiently transfected 293 cells
[2] = target: T2, gD epitope-tagged LgR5 22-123 (amino …); experiment: FACS on transiently transfected 293 cells
[3] = target: T3, gD epitope-tagged LgR5 424-907 (amino …); experiment: FACS on transiently transfected 293 cells
[4] = target: T4, human LgR5 ECD (amino acids 22-557 …); experiment: SPR (BIAcore-3000), antibody captured by anti-human Fc, LgR5 ECD-Fc injected
[5] = target: T4, human LgR5 ECD (amino acids 22-557 …); experiment: BIAcore-3000 SPR, IgG captured on goat anti-human Fc, human LgR5 ECD-Fc injected, 25 C, 1:1 Langmuir model
Method: The affinity of each 8E11 IgG variant for human LgR5 was determined by surface plasmon resonance using a BIAcore™-3000. BIAcore™ research grade CMS chips were activated with 1-ethyl-3-(3-dimethylaminopropyl) carbodiimide (EDC) and N-hydroxysuccinimide (NHS) reagents according to the supplier's instructions. Goat anti-human Fc IgGs were coupled to the chips to achieve approximately 10,000 response units (RU) in each flow cell. Unreacted coupling groups were blocked with 1M ethanolamine. For kinetics measurements, anti-LGR5 antibodies were captured to achieve approximately 300 RU. Two-fold serial dilutions of human LgR5ECD (amino acids 22-557 fused to His-Fc expressed in a baculovirus system, or amino acids 22-558 fused to Fc expressed from CHO cells; 125 nM to 0.49 nM) were injected in HBS-P buffer (0.01M HEPES pH7.4, 0.15M NaCl, 0.005% surfactant P20) at 25° C. with a flow rate of 30 μl/min. Association rates (kₒₙ) and dissociation rates (koff) were calculated using a 1:1 Langmuir binding model (BIAcore™ Evaluation Software version 3.2). The equilibrium dissociation constant (Kd) was calculated as the ratio koff/kₒₙ.

Row | binding result [1] | binding result [2] | binding result [3] | Kd [4] | Kd [5] | koff [5] | kon [5] | Binder
1 | no binding (tested: 10 µg/ml) | no binding (tested: 10 µg/ml) | no binding (tested: 10 µg/ml) | 2.4 nM | 3 nM | 0.00064 s⁻¹ | 210000 M⁻¹ s⁻¹ | chimeric monoclonal antibody 8E11 (antibody, human IgG1, V domains shown, also called ch8E11; chimeric 8E11) VH: QVQLQQSGTELMKPGASVKISCKATGYTFSAYWIEWIKQRPGHGLEWIGEILPGSDSTDYNEKFKVKATFSSDTSSNTVYIQLNSLTYEDSAVYYCARGGHYGSLDYWGQGTTLKVSS VL: NIVLTQSPASLAVSLGQRATISCRASESVDNYGNSFMHWYQQKPGQPPKLLIYLASNLESGVPARFSGSGSRTDFTLTIDPVEADDAATYYCQQNYEDPFTFGSGTKVEIKR
2 | no binding (tested: 10 µg/ml) | no binding (tested: 10 µg/ml) | no binding (tested: 10 µg/ml) |  | 3.1 nM | 0.000853 s⁻¹ | 279000 M⁻¹ s⁻¹ | humanized monoclonal antibody 8E11.v2 (antibody, human IgG1, kappa, V domains shown, It was assessed as an IgG; also called hu8E11.v2; hu8E11v2) VH: EVQLVQSGAEVKKPGASVKVSCKASGYTFSAYWIEWVRQAPGQGLEWIGEILPGSDSTDYNEKFKVRATFTSDTSTSTVYLELSSLRSEDTAVYYCARGGHYGSLDYWGQGTLVTVSS VL: DIVMTQSPDSLAVSLGERATINCRASESVDNYGNSFMHWYQQKPGQPPKLLIYLASNLESGVPDRFSGSGSGTDFTLTISSLQAEDVAVYYCQQNYEDPFTFGQGTKVEIKR
3 | no binding (tested: 10 µg/ml) |  | no binding (tested: 10 µg/ml) | 1.6 nM |  |  |  | human antibody YW353 (antibody, human IgG1, kappa, V domains shown, also called huYW353) VH: EVQLVESGGGLVQPGGSLRLSCAASGFTFTSYSISWVRQAPGKGLEWVAEIYPPGGYTDYADSVKGRFTISADTSKNTAYLQMNSLRAEDTAVYYCAKARLFFDYWGQGTLVTVSS VL: DIQMTQSPSSLSASVGDRVTITCRASQDVSTAVAWYQQKPGKAPKLLIYSASFLYSGVPSRFSGSGSGTDFTLTISSLQPEDFATYYCQQSYTTPPTFGQGTKVEIKR
